Results as given in patent publication US20090181035A1 (Genentech, published 2009).

T1: PlxD1-Fc (human PlexinD1 ECD Met1 to Ala1271 fused to the Fc portion of human IgG1) (human, UniProt Q9Y4D7 47-1271)
T1 construct: range 1-1271; also called PlexinD1 immunoadhesin; soluble PlexinD1; not shown: Fc portion of human IgG1
T1 sequence (looked up): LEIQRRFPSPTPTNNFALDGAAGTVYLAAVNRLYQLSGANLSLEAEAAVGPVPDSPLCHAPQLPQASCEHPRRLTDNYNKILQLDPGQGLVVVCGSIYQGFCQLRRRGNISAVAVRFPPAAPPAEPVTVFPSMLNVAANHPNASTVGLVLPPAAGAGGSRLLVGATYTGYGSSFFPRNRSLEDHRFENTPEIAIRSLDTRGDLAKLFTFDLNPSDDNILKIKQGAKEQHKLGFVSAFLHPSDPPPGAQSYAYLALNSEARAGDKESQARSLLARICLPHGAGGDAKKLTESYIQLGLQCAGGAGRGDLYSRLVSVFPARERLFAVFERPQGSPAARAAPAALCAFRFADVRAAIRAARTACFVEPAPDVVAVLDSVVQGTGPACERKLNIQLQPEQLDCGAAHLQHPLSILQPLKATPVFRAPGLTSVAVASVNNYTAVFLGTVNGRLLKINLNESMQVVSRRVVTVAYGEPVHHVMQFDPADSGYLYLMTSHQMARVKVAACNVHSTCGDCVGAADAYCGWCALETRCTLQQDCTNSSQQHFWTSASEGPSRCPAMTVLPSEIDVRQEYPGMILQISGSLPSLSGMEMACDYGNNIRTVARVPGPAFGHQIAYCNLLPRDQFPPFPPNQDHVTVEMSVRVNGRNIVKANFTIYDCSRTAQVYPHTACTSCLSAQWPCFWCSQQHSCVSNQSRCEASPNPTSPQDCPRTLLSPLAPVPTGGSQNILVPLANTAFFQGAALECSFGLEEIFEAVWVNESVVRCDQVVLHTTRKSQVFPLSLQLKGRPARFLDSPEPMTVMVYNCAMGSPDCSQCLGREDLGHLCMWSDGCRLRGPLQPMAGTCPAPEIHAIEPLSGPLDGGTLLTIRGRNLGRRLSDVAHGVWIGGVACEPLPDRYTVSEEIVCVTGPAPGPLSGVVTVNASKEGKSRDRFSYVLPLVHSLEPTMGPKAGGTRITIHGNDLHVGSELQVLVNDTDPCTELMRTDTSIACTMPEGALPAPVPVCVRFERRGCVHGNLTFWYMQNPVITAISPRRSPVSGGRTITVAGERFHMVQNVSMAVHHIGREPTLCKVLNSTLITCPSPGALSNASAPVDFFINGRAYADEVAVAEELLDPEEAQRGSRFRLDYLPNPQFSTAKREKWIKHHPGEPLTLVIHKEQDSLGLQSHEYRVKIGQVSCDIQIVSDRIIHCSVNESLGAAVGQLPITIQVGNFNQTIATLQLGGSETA


How the values were obtained:
[1] = target: T1, PlxD1-Fc (human PlexinD1 ECD Met1 to …); assay: SPR (Biacore 3000, 25 C); PlxD1-Fc amine-coupled on CM5 chip, Sema3E^SD-His as analyte; one-to-one model; SPR, 25 C; PlxD1-Fc on the chip, His-tagged Sema3E^SD as analyte
Procedure: Binding experiments were performed by SPR measurements on a Biacore 3000 instrument (Biacore Inc.) at 25° C. PlxD1-Fc constructed as described in Example 1 was immobilized at high surface density (˜10,000 RU) on an activated CM5 chip using standard amine coupling procedures as described by the manufacturer. PlxD1-Fc was injected at a concentration of 10 μg/ml in 20 mM sodium acetate, pH 4.5 and at a flow rate of 5 μl/min until desired surface densities, measured in response units (RU), were reached. Unreacted groups were blocked by injecting 1 M ethanolamine. To perform binding assays, different concentrations of Sema3E^SD-His were injected in 10 mM HEPES pH 7.4, 150 mM NaCl, 0.005% v/v Surfactant P20, at a flow rate of 5 μl/min. Blank surfaces were used for background corrections. Injections of 10 mM glycine, pH 3.0 at 100 μl/min for 1 min were used to regenerate surfaces between two binding experiments. Kinetic analysis was performed with binding sensorgrams of different analyte concentrations using the BIAevaluation Software (Biacore Inc.). An one-to-one binding model was used to fit the experimental data for association and dissociation reactions. Dissociation constants were calculated from the on and off rates. […] Radioligand cell binding assays were performed and the dissociation constant for Sema3E^SD-Fc binding to HUVECs was calculated to 4 nM.

[2] = target: T2, murine PlexinD1 expressed on mouse microvascular endothelial (MS1) cells (mouse, UniProt Q3UH93 49-1925); assay: FACS on MS1 cells
T2 construct: whole, on cells; Endogenous receptor on a cell line

[3] = target: T3, human PlexinD1 expressed on human umbilical vein endothelial cells (HUVECs) (human, UniProt Q9Y4D7 47-1925); assay: radioligand cell binding assay on HUVECs; radioligand binding on HUVECs (endogenous human PlexinD1); Fc fusion, not His
T3 construct: whole, on cells; Endogenous receptor on primary cells; also called native PlexinD1

Kd [1] | binding result [2] | Kd [3] | Binder
24 nM |  |  | Sema3E^SD-His (human Semaphorin 3E Ala26 to Arg560 of SEQ ID NO: 1 with an N-terminal Histidine tag) (ligand, not shown: small tags and cut ends, Produced by transient transfection of CHO cells; also called His-tagged Sema3E^SD; soluble Sema3E sema domain construct) ADTTHPRLRLSHKELLNLNRTSIFHSPFGFLDLHTMLLDEYQERLFVGGRDLVYSLSLERISDGYKEIHWPSTALKMEECIMKGKDAGECANYVRVLHHYNRTHLLTCGTGAFDPVCAFIRVGYHLEDPLFHLESPRSERGRGRCPFDPSSSFISTLIGSELFAGLYSDYWSRDAAIFRSMGRLAHIRTEHDDERLLKEPKFVGSYMIPDNEDRDDNKVYFFFTEKALEAENNAHAIYTRVGRLCVNDVGGQRILVNKWSTFLKARLVCSVPGMNGIDTYFDELEDVFLLPTRDHKNPVIFGLFNTTSNIFRGHAICVYHMSSIRAAFNGPYAHKEGPEYHWSVYEGKVPYPRPGSCASKVNGGRYGTTKDYPDDAIRFARSHPLMYQAIKPAHKKPILVKTDGKYNLKQIAVDRVEAEDGQYDVLFIGTDNGIVLKVITIYNQEMESMEEVILEELQIFKDPVPIISMEISSKRQQLYIGSASAVAQVRFHHCDMYGSACADCCLARDPYCAWDGISCSRYYPTGTHAKRRFRR
 | binds | 4 nM | Sema3E^SD-Fc (human Semaphorin 3E Met1 to Ala554 of SEQ ID NO: 1 with the Fc portion of human IgG1 as C-terminal fusion partner) (Fc fusion, The construct as cloned starts at Met1; also called Sema3E^SD-Fc immunoadhesin; not shown: Fc portion of human IgG1) ADTTHPRLRLSHKELLNLNRTSIFHSPFGFLDLHTMLLDEYQERLFVGGRDLVYSLSLERISDGYKEIHWPSTALKMEECIMKGKDAGECANYVRVLHHYNRTHLLTCGTGAFDPVCAFIRVGYHLEDPLFHLESPRSERGRGRCPFDPSSSFISTLIGSELFAGLYSDYWSRDAAIFRSMGRLAHIRTEHDDERLLKEPKFVGSYMIPDNEDRDDNKVYFFFTEKALEAENNAHAIYTRVGRLCVNDVGGQRILVNKWSTFLKARLVCSVPGMNGIDTYFDELEDVFLLPTRDHKNPVIFGLFNTTSNIFRGHAICVYHMSSIRAAFNGPYAHKEGPEYHWSVYEGKVPYPRPGSCASKVNGGRYGTTKDYPDDAIRFARSHPLMYQAIKPAHKKPILVKTDGKYNLKQIAVDRVEAEDGQYDVLFIGTDNGIVLKVITIYNQEMESMEEVILEELQIFKDPVPIISMEISSKRQQLYIGSASAVAQVRFHHCDMYGSACADCCLARDPYCAWDGISCSRYYPTGTHA
